localisation_or_trafficking data for one protein are collected here from PMC10629159.

This series can be described thus: BioID2 proximity profile; Myc immunofluorescence. The following applies: glycan lost; control: EMP3 WT bait.

B1: Epithelial membrane protein 3 (EMP3): N47A (protein)
parent chain: MSLLLLVVSALHILILILLFVATLDKSWWTLPGKESLNLWYDCTWNNDTKTWACSNVSENGWLKAVQVLMVLSLILCCLSFILFMFQLYTMRRGGLFYATGLCQLCTSVAVFTGALIYAIHAEEILEKHPRGGSFGYCFALAWVAFPLALVSGIIYIHLRKRE
B1: the localisation_or_trafficking result was “no change”.
